We go through four molecules from publication PMC4356369, “An intermolecular binding mechanism involving multiple LysM domains mediates carbohydrate recognition by an endopeptidase” (Acta Crystallographica Section D: Biological Crystallography, 2015).

As usually defined, the stoichiometry N is the number of molecules, sites or subunits per partner or assembly.

Series [1] addresses P60_tth (TTHA0266), NlpC/P60 D,L-endopeptidase from Thermus thermophilus, full-length protein (Thermus thermophilus) (UniProt Q5SLM7). The series is described as follows: SEC; Superdex 75 10/300 GL, 50 mM Tris-HCl pH 8, 200 mM NaCl, 5 mM beta-mercaptoethanol, 0.5 ml/min; apparent molecular weight from a calibration curve. Background: SEC sorts molecules by how far they enter the pores of the column.

The target is the same in series [2]. The experiment in a line: SAXS; small-angle X-ray scattering in solution, ESRF beamline BM-29; molecular weight estimated from the scattering; models evaluated with CRYSOL and CORAL.
Series [3] concerns the target P60_cata (catalytic domain of P60_tth alone) (Thermus thermophilus). The experiment in a line: SEC; Superdex 75 10/300 GL, 50 mM Tris-HCl pH 8, 200 mM NaCl, 5 mM beta-mercaptoethanol, 0.5 ml/min; apparent molecular weight from a calibration curve.
For series [4] the target is unchanged. The series is described as follows: SAXS; small-angle X-ray scattering in solution, ESRF beamline BM-29; molecular weight estimated from the scattering; models evaluated with CRYSOL and CORAL.
Series [5] deals with T1, P60_tth (TTHA0266), full-length (Thermus thermophilus, UniProt Q5SLM7, F76A/R80A/E99A).
T1 construct: full-length P60_tth (LysM1, LysM2, NlpC/P60 catalytic domain); Trx/His/S-tag fusion cut by TEV, expressed in E. coli BL21 Rosetta 2 (DE3)
The series is described as follows: microscale thermophoresis. The series is classed as binding. The conditions noted are these: labelled protein (200 nM); 50 mM phosphate pH 7.5, 0.1% Tween 20; incubated 1 h at 60°C, measured at room temperature; P60_tth_LysM2_mut. In general terms: Microscale thermophoresis detects binding through changes in fluorescence in a small temperature gradient.

Series [6] deals with T2, P60_tth (TTHA0266), full-length (Thermus thermophilus, UniProt Q5SLM7).
T2 construct: full-length P60_tth (LysM1, LysM2, NlpC/P60 catalytic domain); Trx/His/S-tag fusion cut by TEV, expressed in E. coli BL21 Rosetta 2 (DE3)
The series is described as follows: microscale thermophoresis. It counts as binding. The conditions noted are these: labelled protein (200 nM); 50 mM phosphate pH 7.5, 0.1% Tween 20; incubated 1 h at 60°C, measured at room temperature; read-out: apparent Kd.

In series [7] the target is T3, P60_tth (TTHA0266), full-length (Thermus thermophilus, UniProt Q5SLM7, Y28A/R32A/F50A/Q53A).
T3 construct: full-length P60_tth (LysM1, LysM2, NlpC/P60 catalytic domain); Trx/His/S-tag fusion cut by TEV, expressed in E. coli BL21 Rosetta 2 (DE3)
The series is described as follows: microscale thermophoresis. The conditions noted are these: labelled protein (200 nM); 50 mM phosphate pH 7.5, 0.1% Tween 20; incubated 1 h at 60°C, measured at room temperature; P60_tth_LysM1_mut (Nus/His/S-tag fusion, tags cleaved). It counts as binding.

A further series deals with T4, P60_2LysM (Thermus thermophilus, UniProt Q5SLM7).
T4 construct: gene TTHA0266; LysM1-LysM2 only, no catalytic domain; Trx/His/S-tag fusion cut by TEV, expressed in E. coli
The experiment in a line: X-ray co-crystal structure, […] Å. It counts as binding. The following applies: co-crystallized at protein:sugar 1:2; LysM1 and LysM2 of symmetry-related monomers share one ligand; pH 6.5.

Series [8] deals with the molecule itself. The experiment in a line: SEC; Superdex 75 10/300 GL, 50 mM Tris-HCl pH 8, 200 mM NaCl, 5 mM beta-mercaptoethanol, 0.5 ml/min; apparent molecular weight from a calibration curve.

T4 sequence (Q5SLM7 15-114 limits assumed): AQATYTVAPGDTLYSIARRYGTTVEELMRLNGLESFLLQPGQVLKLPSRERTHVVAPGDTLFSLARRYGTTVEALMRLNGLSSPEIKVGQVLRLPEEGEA
T1 sequence (Q5SLM7 entry or part of it F76A/R80A/E99A): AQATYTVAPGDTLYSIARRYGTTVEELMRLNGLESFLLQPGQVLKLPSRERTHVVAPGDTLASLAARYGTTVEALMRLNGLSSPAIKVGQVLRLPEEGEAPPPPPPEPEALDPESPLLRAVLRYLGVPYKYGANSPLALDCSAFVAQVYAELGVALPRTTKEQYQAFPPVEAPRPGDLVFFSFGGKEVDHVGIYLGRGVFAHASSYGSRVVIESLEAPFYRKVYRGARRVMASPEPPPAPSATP
T3 sequence (Q5SLM7 entry or part of it Y28A/R32A/F50A/Q53A): as the sequence (Q5SLM7 entry or part of it F76A/R80A/E99A) above, with Y14A, R18A, F36A, Q39A, A62F, A66R, A85E counted along it
T2 sequence (Q5SLM7 15-258): as the sequence (Q5SLM7 entry or part of it F76A/R80A/E99A) above, with A62F, A66R, A85E counted along it

Regarding “P60_tth (TTHA0266), NlpC/P60 D,L-endopeptidase from Thermus thermophilus, full-length protein (from UniProt Q5SLM7 1-258) (enzyme)”, the stoichiometry N in [1] and in series [2] was 2 throughout.

Consider “P60_cata (catalytic domain of P60_tth alone) (domain or fragment)”, for which the stoichiometry N in series [3] and in [4] was 2 in each case.

Turning to `CC(=O)N[C@H]1[C@H](O[C@H]2[C@H](O)[C@@H](NC(C)=O)[C@H](O[C@H]3[C@H](O)[C@@H](NC(C)=O)C(O)O[C@@H]3CO)O[C@@H]2CO)O[C@H](CO)[C@@H](O[C@@H]2O[C@H](CO)[C@@H](O[C@@H]3O[C@H](CO)[C@@H](O[C@@H]4O[C@H](CO)[C@@H](O)[C@H](O)[C@H]4NC(C)=O)[C@H](O)[C@H]3NC(C)=O)[C@H](O)[C@H]2NC(C)=O)[C@@H]1O` (stereo partly drawn) [chitohexaose], the values for the Kd in [5], in [6] and in series [7] were 292 ± 86.5 µM, 90 ± 19.8 µM and 321 ± 112 µM, respectively. For the same molecule, at P60_2LysM, the “X-ray co-crystal structure, 1.75 Å” value is given as “solved the crystal structure of P60_2LysM bound to chitohexaose”.

B1: P60_1LysM (P60_tth with the N-terminal LysM domain deleted) (domain or fragment, Thermus thermophilus, UniProt Q5SLM7 62-258, looked up)
chain: SRERTHVVAPGDTLFSLARRYGTTVEALMRLNGLSSPEIKVGQVLRLPEEGEAPPPPPPEPEALDPESPLLRAVLRYLGVPYKYGANSPLALDCSAFVAQVYAELGVALPRTTKEQYQAFPPVEAPRPGDLVFFSFGGKEVDHVGIYLGRGVFAHASSYGSRVVIESLEAPFYRKVYRGARRVMASPEPPPAPSATP
notes: TTHA0266 (P60_tth) of Thermus thermophilus without the N-terminal LysM domain (LysM2, linker and catalytic domain); predicted molecular weight 21.4 kDa; with Val69 and Thr74 of the text this puts the first residue at Ser62; The start was worked out from the translated primer and the residue numbers printed for LysM2; the C-terminus is as in the full-length construct; source: E. coli BL21 Rosetta …
Regarding B1, the “stoichiometry N” value in series [8] was determined as 2.
